The test has as its target T1, streptavidin (UniProt P22629 25-183).
T1 construct: streptavidin; Commercial streptavidin is usually a homotetramer of a processed (core) form; also called SA; source: bought: Wako Pure Chemical Industries (ELISA)
Description: fluorescence polarisation; 4 pmol FAM-labelled peptide with various concentrations of the protein; 50 mM Tris-HCl pH 8.0, 150 mM NaCl, 1 mM TCEP-NaOH, 30 °C; Klotz plot, non-linear least squares fit. The following applies: both partners purified. A general note: Polarisation of emitted light reports the rotation of a fluorescent probe.

5/6‑FAM = 5/6-carboxyfluorescein

T1 sequence (P22629 25-183): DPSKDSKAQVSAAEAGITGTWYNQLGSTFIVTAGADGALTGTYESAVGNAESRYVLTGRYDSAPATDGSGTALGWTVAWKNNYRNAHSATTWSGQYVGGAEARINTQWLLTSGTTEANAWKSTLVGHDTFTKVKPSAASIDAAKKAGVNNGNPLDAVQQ

B1: mock (Sal-unconjugated) fluorescent peptide (H2N-K-5/6-FAM-A-M-W-C-Q-Y-H-P-Q-N-C-Y-K-M-NH2) (peptide)
peptide: H-K(5/6‑FAM)AMWCQYHPQNCYKM-NH2
modifications: cysteine pairing not given here
notes: cysteines not alkylated; Assayed under reducing conditions (1 mM TCEP), so the cysteines are free thiols; also called mock peptide; unmodified fluorescent peptide; source: synthetic peptide (solid phase synthesis, reverse-phase HPLC)
Regarding B1, the “fold lower affinity than the Sal-conjugated peptide” value is approximately 10 fold.

B2: Sal-conjugated fluorescent peptide possessing the sequence of clone 7 (K-5/6-FAM-A-M-W-C*-Q-Y-H-P-Q-N-C*-Y-K-M-NH2) (peptide)
peptide: KAMWCQYHPQNCYKM
modifications: 5/6-FAM on the N-terminal lysine (K-5/6-FAM); Sal-conjugated Cys (C*) at both cysteines; C-terminal amide (NH2)
notes: Linear peptide; both cysteines are alkylated with 4-acetamidosalicylic acid (thioether); also called Sal-conjugated peptide; Sal-conjugated linear peptide; source: synthetic peptide (solid phase synthesis, HPLC), then conjugated with Sal-IA and purified by reverse-phase HPLC
As a reminder, the Kd is the constant that tells how readily two partners part at equilibrium. Higher therefore signals lower affinity. As for B2, the equilibrium dissociation constant (Kd) worked out at 180 nM. In other words, the sub-micromolar range.

For the origin of these results see PMC6271298, “Pharmacophore Generation from a Drug-like Core Molecule Surrounded by a Library Peptide via the 10BASEd-T on Bacteriophage T7” (Molecules, 2014).
